T1: human BCMA (human, UniProt Q02223 1-184)
T1 construct: whole, on cells; also called hBCMA; tumor necrosis factor receptor superfamily member 17
T1 sequence (looked up): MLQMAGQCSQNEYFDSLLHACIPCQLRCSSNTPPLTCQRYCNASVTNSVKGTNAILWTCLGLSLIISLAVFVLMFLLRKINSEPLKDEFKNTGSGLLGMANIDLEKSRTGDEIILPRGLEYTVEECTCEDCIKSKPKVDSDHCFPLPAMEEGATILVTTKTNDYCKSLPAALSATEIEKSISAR


Target: T1, human BCMA
Experiment: flow cytometry (FACS) on NCI-H929 cells

Row | Binder | binding result
1 | HCAb PR004433 (antibody, human IgG1, V domains shown, also called PR001046_R2_4G10; anti-BCMA HCAb antibody PR004433) VH: EVQLVETGGGLIQPGGSLRLSCAASGFTVSDSYMTWVRQAPGKGLEWVSVIFSGGRTYYSDSVKGRFTISRDNAKNTLYLQMNSLRAEDTALYYCARRNYDDTRGTDVFDIWGQGTMVTVSS | binds
2 | PR006037 (antibody, V domains shown, also called PR004433 variant molecule; Hinge5_2) VH: EVQLVETGGGLIQPGGSLRLSCAASGFTVSDSYMTWVRQAPGKGLEWVSVIFSGGRTYYSDSVKGRFTISRDNAKNTLYLQMNSLRAEDTALYYCARRNYDDTRGTDVFDIWGQGTMVTVSS | binds
3 | PR006038 (antibody, V domains shown, also called PR004433 variant molecule; Hinge5_12) VH: EVQLVETGGGLIQPGGSLRLSCAASGFTVSDSYMTWVRQAPGKGLEWVSVIFSGGRTYYSDSVKGRFTISRDNAKNTLYLQMNSLRAEDTALYYCARRNYDDTRGTDVFDIWGQGTMVTVSS | binds
4 | PR006039 (antibody, V domains shown, also called PR004433 variant molecule; Hinge5_13) VH: EVQLVETGGGLIQPGGSLRLSCAASGFTVSDSYMTWVRQAPGKGLEWVSVIFSGGRTYYSDSVKGRFTISRDNAKNTLYLQMNSLRAEDTALYYCARRNYDDTRGTDVFDIWGQGTMVTVSS | binds
5 | PR006031 (antibody, V domains shown, also called PR004433 variant molecule; Hinge3_5) VH: EVQLVETGGGLIQPGGSLRLSCAASGFTVSDSYMTWVRQAPGKGLEWVSVIFSGGRTYYSDSVKGRFTISRDNAKNTLYLQMNSLRAEDTALYYCARRNYDDTRGTDVFDIWGQGTMVTVSS | binds
6 | PR006032 (antibody, V domains shown, also called PR004433 variant molecule; Hinge3_6) VH: EVQLVETGGGLIQPGGSLRLSCAASGFTVSDSYMTWVRQAPGKGLEWVSVIFSGGRTYYSDSVKGRFTISRDNAKNTLYLQMNSLRAEDTALYYCARRNYDDTRGTDVFDIWGQGTMVTVSS | binds
7 | PR006033 (antibody, V domains shown, also called PR004433 variant molecule; Hinge3_18) VH: EVQLVETGGGLIQPGGSLRLSCAASGFTVSDSYMTWVRQAPGKGLEWVSVIFSGGRTYYSDSVKGRFTISRDNAKNTLYLQMNSLRAEDTALYYCARRNYDDTRGTDVFDIWGQGTMVTVSS | binds
8 | PR006036 (antibody, V domains shown, also called PR004433 variant molecule; Hinge4_15) VH: EVQLVETGGGLIQPGGSLRLSCAASGFTVSDSYMTWVRQAPGKGLEWVSVIFSGGRTYYSDSVKGRFTISRDNAKNTLYLQMNSLRAEDTALYYCARRNYDDTRGTDVFDIWGQGTMVTVSS | binds
9 | PR006034 (antibody, V domains shown, also called PR004433 variant molecule; Hinge4_1) VH: EVQLVETGGGLIQPGGSLRLSCAASGFTVSDSYMTWVRQAPGKGLEWVSVIFSGGRTYYSDSVKGRFTISRDNAKNTLYLQMNSLRAEDTALYYCARRNYDDTRGTDVFDIWGQGTMVTVSS | binds
10 | PR006035 (antibody, V domains shown, also called PR004433 variant molecule; Hinge4_6) VH: EVQLVETGGGLIQPGGSLRLSCAASGFTVSDSYMTWVRQAPGKGLEWVSVIFSGGRTYYSDSVKGRFTISRDNAKNTLYLQMNSLRAEDTALYYCARRNYDDTRGTDVFDIWGQGTMVTVSS | binds
11 | PR006042 (antibody, V domains shown, also called PR004433 variant molecule; Hinge6_18) VH: EVQLVETGGGLIQPGGSLRLSCAASGFTVSDSYMTWVRQAPGKGLEWVSVIFSGGRTYYSDSVKGRFTISRDNAKNTLYLQMNSLRAEDTALYYCARRNYDDTRGTDVFDIWGQGTMVTVSS | binds
12 | PR006040 (antibody, V domains shown, also called PR004433 variant molecule; Hinge6_4) VH: EVQLVETGGGLIQPGGSLRLSCAASGFTVSDSYMTWVRQAPGKGLEWVSVIFSGGRTYYSDSVKGRFTISRDNAKNTLYLQMNSLRAEDTALYYCARRNYDDTRGTDVFDIWGQGTMVTVSS | binds
13 | PR006041 (antibody, V domains shown, also called PR004433 variant molecule; Hinge6_15) VH: EVQLVETGGGLIQPGGSLRLSCAASGFTVSDSYMTWVRQAPGKGLEWVSVIFSGGRTYYSDSVKGRFTISRDNAKNTLYLQMNSLRAEDTALYYCARRNYDDTRGTDVFDIWGQGTMVTVSS | binds
14 | PR006310 (antibody, V domains shown, also called PR004433 variant molecule; Hinge7_2) VH: EVQLVETGGGLIQPGGSLRLSCAASGFTVSDSYMTWVRQAPGKGLEWVSVIFSGGRTYYSDSVKGRFTISRDNAKNTLYLQMNSLRAEDTALYYCARRNYDDTRGTDVFDIWGQGTMVTVSS | binds
15 | PR006312 (antibody, V domains shown, also called PR004433 variant molecule; Hinge7_19) VH: EVQLVETGGGLIQPGGSLRLSCAASGFTVSDSYMTWVRQAPGKGLEWVSVIFSGGRTYYSDSVKGRFTISRDNAKNTLYLQMNSLRAEDTALYYCARRNYDDTRGTDVFDIWGQGTMVTVSS | binds
16 | PR006314 (antibody, V domains shown, also called PR004433 variant molecule; Hinge8_18) VH: EVQLVETGGGLIQPGGSLRLSCAASGFTVSDSYMTWVRQAPGKGLEWVSVIFSGGRTYYSDSVKGRFTISRDNAKNTLYLQMNSLRAEDTALYYCARRNYDDTRGTDVFDIWGQGTMVTVSS | binds
17 | PR006313 (antibody, V domains shown, also called PR004433 variant molecule; Hinge8_8) VH: EVQLVETGGGLIQPGGSLRLSCAASGFTVSDSYMTWVRQAPGKGLEWVSVIFSGGRTYYSDSVKGRFTISRDNAKNTLYLQMNSLRAEDTALYYCARRNYDDTRGTDVFDIWGQGTMVTVSS | binds
18 | PR006315 (antibody, V domains shown, also called PR004433 variant molecule; Hinge8_20) VH: EVQLVETGGGLIQPGGSLRLSCAASGFTVSDSYMTWVRQAPGKGLEWVSVIFSGGRTYYSDSVKGRFTISRDNAKNTLYLQMNSLRAEDTALYYCARRNYDDTRGTDVFDIWGQGTMVTVSS | binds
19 | PR006316 (antibody, V domains shown, also called PR004433 variant molecule; Hinge9_5) VH: EVQLVETGGGLIQPGGSLRLSCAASGFTVSDSYMTWVRQAPGKGLEWVSVIFSGGRTYYSDSVKGRFTISRDNAKNTLYLQMNSLRAEDTALYYCARRNYDDTRGTDVFDIWGQGTMVTVSS | binds
20 | PR006317 (antibody, V domains shown, also called PR004433 variant molecule; Hinge9_7) VH: EVQLVETGGGLIQPGGSLRLSCAASGFTVSDSYMTWVRQAPGKGLEWVSVIFSGGRTYYSDSVKGRFTISRDNAKNTLYLQMNSLRAEDTALYYCARRNYDDTRGTDVFDIWGQGTMVTVSS | binds
21 | PR006318 (antibody, V domains shown, also called PR004433 variant molecule; Hinge9_14) VH: EVQLVETGGGLIQPGGSLRLSCAASGFTVSDSYMTWVRQAPGKGLEWVSVIFSGGRTYYSDSVKGRFTISRDNAKNTLYLQMNSLRAEDTALYYCARRNYDDTRGTDVFDIWGQGTMVTVSS | binds
22 | PR006319 (antibody, V domains shown, also called PR004433 variant molecule; Hinge10_3) VH: EVQLVETGGGLIQPGGSLRLSCAASGFTVSDSYMTWVRQAPGKGLEWVSVIFSGGRTYYSDSVKGRFTISRDNAKNTLYLQMNSLRAEDTALYYCARRNYDDTRGTDVFDIWGQGTMVTVSS | binds
23 | PR006320 (antibody, V domains shown, also called PR004433 variant molecule; Hinge10_5) VH: EVQLVETGGGLIQPGGSLRLSCAASGFTVSDSYMTWVRQAPGKGLEWVSVIFSGGRTYYSDSVKGRFTISRDNAKNTLYLQMNSLRAEDTALYYCARRNYDDTRGTDVFDIWGQGTMVTVSS | binds
24 | PR006321 (antibody, V domains shown, also called PR004433 variant molecule; Hinge10_7) VH: EVQLVETGGGLIQPGGSLRLSCAASGFTVSDSYMTWVRQAPGKGLEWVSVIFSGGRTYYSDSVKGRFTISRDNAKNTLYLQMNSLRAEDTALYYCARRNYDDTRGTDVFDIWGQGTMVTVSS | binds
25 | HCAb PR006468 (antibody, V domains shown) VH: EVQLVETGGGLIQPGGSLRLSCAASGFTVSDSYMTWVRQAPGKGLEWVSVIFSGGRTYYSDSVKGRFTISRDNAKNTLYLQMNSLRAEDTALYYCARRNYDDTRGTDVFDIWGQGTMVTVSS | binds
26 | PR006468-ADC (antibody, V domains shown, mc-vc-PAB-MMAE coupled to Cys1 (first cysteine) of the mouse IgG2c hinge region (90.8% of the site coupled), Purified coupling product of PR006468 with mc-vc-PAB-MMAE, DAR=2 component 95.5%; also called coupling product PR006468-ADC) VH: EVQLVETGGGLIQPGGSLRLSCAASGFTVSDSYMTWVRQAPGKGLEWVSVIFSGGRTYYSDSVKGRFTISRDNAKNTLYLQMNSLRAEDTALYYCARRNYDDTRGTDVFDIWGQGTMVTVSS | binds
27 | PR005744-ADC (bispecific antibody, human IgG1, kappa, mc-vc-PAB-MMAE coupled to Cys-220 (Eu numbering) of the linker peptide (99.07% of the site coupled), Coupling product of PR005744 with mc-vc-PAB-MMAE; also called coupling product PR005744-ADC) chain 1: QVQLVESGGGVVQPGRSLRLSCAATGFTFSSYGMYWVRQAPGKGLEWVAAIWNDGSNNYYADSVKGRFTISRDDSKNTLNLQMNSLRAEDTAMYYCARDRLPMASLRYFDWLGVMDAWGQGTSVTVSSASTKGPSVFPLAPSSKSTSGGTAALGCLVKDYFPEPVTVSWNSGALTSGVHTFPAVLQSSGLYSLSSVVTVPSSSLGTQTYICNVNHKPSNTKVDKKVEPKSC chain 2: not shown | binds
28 | PR004433-PROTAC (antibody, human IgG1, V domains shown, BRD4 protein degrading agent (PROTAC GNE-987 with a disulfide-containing linker) coupled by a disulfide bond to cysteine, Cys-220 site (Eu numbering) as the filing aims, Coupling product without HIC purification; DAR=2 component 66.4%, naked antibody 28.4%; also called coupling product PR004433-PROTAC) VH: EVQLVETGGGLIQPGGSLRLSCAASGFTVSDSYMTWVRQAPGKGLEWVSVIFSGGRTYYSDSVKGRFTISRDNAKNTLYLQMNSLRAEDTALYYCARRNYDDTRGTDVFDIWGQGTMVTVSS | binds
